The record followed here is US20150315260A1 (Sanofi, published 2015).

What all share (assay): cell-based or functional assay
Assay [1] deals with human glucagon receptor (human, UniProt P47871 26-477).
Assay [2] concerns the target human GLP-1 receptor (human, UniProt P43220 24-463).
Assay [3] addresses T1, human GIP receptor (human, UniProt P48546 22-466).
T1 sequence (looked up): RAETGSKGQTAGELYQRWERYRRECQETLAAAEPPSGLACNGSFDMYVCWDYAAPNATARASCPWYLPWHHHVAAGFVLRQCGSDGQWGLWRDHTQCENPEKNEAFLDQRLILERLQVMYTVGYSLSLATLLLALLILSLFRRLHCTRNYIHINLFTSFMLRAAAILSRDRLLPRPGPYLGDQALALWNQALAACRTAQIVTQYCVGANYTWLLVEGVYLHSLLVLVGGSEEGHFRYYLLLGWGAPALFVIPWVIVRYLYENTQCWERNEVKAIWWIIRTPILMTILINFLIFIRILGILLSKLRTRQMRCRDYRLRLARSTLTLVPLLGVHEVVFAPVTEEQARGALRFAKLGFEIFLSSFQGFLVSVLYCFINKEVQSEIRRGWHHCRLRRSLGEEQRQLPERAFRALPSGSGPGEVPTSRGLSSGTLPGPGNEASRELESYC

Non-standard residues stand in square brackets, D forms with d. No end group written: not given here. Aib = CC(C)(N)C(=O)O

Chain of human glucagon receptor (P47871 26-477): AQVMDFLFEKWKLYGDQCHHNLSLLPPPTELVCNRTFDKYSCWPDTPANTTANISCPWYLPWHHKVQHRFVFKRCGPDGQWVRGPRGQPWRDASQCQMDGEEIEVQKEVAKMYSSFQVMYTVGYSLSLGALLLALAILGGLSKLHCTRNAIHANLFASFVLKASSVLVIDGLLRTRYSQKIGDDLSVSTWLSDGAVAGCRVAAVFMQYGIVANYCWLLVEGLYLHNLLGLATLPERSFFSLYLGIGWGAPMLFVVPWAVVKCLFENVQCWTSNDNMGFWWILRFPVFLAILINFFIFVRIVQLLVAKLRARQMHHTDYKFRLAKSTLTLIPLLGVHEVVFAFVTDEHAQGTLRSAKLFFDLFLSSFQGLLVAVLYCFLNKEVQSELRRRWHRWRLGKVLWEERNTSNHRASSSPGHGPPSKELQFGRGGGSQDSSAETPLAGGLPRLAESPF

B1: exendin-4 derivative SEQ ID NO: 24 (comparison compound, Leu in position 14) (peptide)
peptide: H[Aib]QGTFTSDLSKQLDEQRAKLFIEWL[Aib]AGGPSSGAPPPS-NH2
modifications: N-terminus assumed
SMILES: CC[C@H](C)[C@H](NC(=O)[C@H](Cc1ccccc1)NC(=O)[C@H](CC(C)C)NC(=O)[C@H](CCCCN)NC(=O)[C@H](C)NC(=O)[C@H](CCCNC(=N)N)NC(=O)[C@H](CCC(N)=O)NC(=O)[C@H](CCC(=O)O)NC(=O)[C@H](CC(=O)O)NC(=O)[C@H](CC(C)C)NC(=O)[C@H](CCC(N)=O)NC(=O)[C@H](CCCCN)NC(=O)[C@H](CO)NC(=O)[C@H](CC(C)C)NC(=O)[C@H](CC(=O)O)NC(=O)[C@H](CO)NC(=O)[C@@H](NC(=O)[C@H](Cc1ccccc1)NC(=O)[C@@H](NC(=O)CNC(=O)[C@H](CCC(N)=O)NC(=O)C(C)(C)NC(=O)[C@@H](N)Cc1c[nH]cn1)[C@@H](C)O)[C@@H](C)O)C(=O)N[C@@H](CCC(=O)O)C(=O)N[C@@H](Cc1c[nH]c2ccccc12)C(=O)N[C@@H](CC(C)C)C(=O)NC(C)(C)C(=O)N[C@@H](C)C(=O)NCC(=O)NCC(=O)N1CCC[C@H]1C(=O)N[C@@H](CO)C(=O)N[C@@H](CO)C(=O)NCC(=O)N[C@@H](C)C(=O)N1CCC[C@H]1C(=O)N1CCC[C@H]1C(=O)N1CCC[C@H]1C(=O)N[C@@H](CO)C(N)=O
As for B1, in assay [1], the “EC50 hGlucagon-R (cAMP formation)” value amounted to 3.09 nM. For the same molecule, the “EC50 hGLP-1R (cAMP formation)” value in assay [2] is 8 pM. In assay [3], the “EC50 hGIP-1 (cAMP formation, GIP receptor)” value was determined as 114 nM.

B2: exendin-4 derivative SEQ ID NO: 23 (comparison compound, non-functionalized Lys in position 14) (peptide)
peptide: H[Aib]QGTFTSDLSKQKDEQRAKLFIEWL[Aib]AGGPSSGAPPPS-NH2
modifications: N-terminus assumed
SMILES: CC[C@H](C)[C@H](NC(=O)[C@H](Cc1ccccc1)NC(=O)[C@H](CC(C)C)NC(=O)[C@H](CCCCN)NC(=O)[C@H](C)NC(=O)[C@H](CCCNC(=N)N)NC(=O)[C@H](CCC(N)=O)NC(=O)[C@H](CCC(=O)O)NC(=O)[C@H](CC(=O)O)NC(=O)[C@H](CCCCN)NC(=O)[C@H](CCC(N)=O)NC(=O)[C@H](CCCCN)NC(=O)[C@H](CO)NC(=O)[C@H](CC(C)C)NC(=O)[C@H](CC(=O)O)NC(=O)[C@H](CO)NC(=O)[C@@H](NC(=O)[C@H](Cc1ccccc1)NC(=O)[C@@H](NC(=O)CNC(=O)[C@H](CCC(N)=O)NC(=O)C(C)(C)NC(=O)[C@@H](N)Cc1c[nH]cn1)[C@@H](C)O)[C@@H](C)O)C(=O)N[C@@H](CCC(=O)O)C(=O)N[C@@H](Cc1c[nH]c2ccccc12)C(=O)N[C@@H](CC(C)C)C(=O)NC(C)(C)C(=O)N[C@@H](C)C(=O)NCC(=O)NCC(=O)N1CCC[C@H]1C(=O)N[C@@H](CO)C(=O)N[C@@H](CO)C(=O)NCC(=O)N[C@@H](C)C(=O)N1CCC[C@H]1C(=O)N1CCC[C@H]1C(=O)N1CCC[C@H]1C(=O)N[C@@H](CO)C(N)=O
For B2, in assay [1], the “EC50 hGlucagon-R (cAMP formation)” value was determined as 42.9 nM. Besides, in assay [2], the “EC50 hGLP-1R (cAMP formation)” value was determined as 52.5 pM. The “EC50 hGIP-1 (cAMP formation, GIP receptor)” value in assay [3] was 177 nM.
